Experimental data: doi:10.1101/208041
Where two headings read alike, the source gives them in different places.

Legend:
Test in all cases: filter binding
[1] = target: T1, dMpAgo (catalytically inactive MpAgo) D446A (Marinitoga piezophila) (UniProt H2J4R4); settings: BrdU at guide 1; for binding signal (fold Kd vs complementary): internal desthiobiotin-TEG before last AA
T1 sequence: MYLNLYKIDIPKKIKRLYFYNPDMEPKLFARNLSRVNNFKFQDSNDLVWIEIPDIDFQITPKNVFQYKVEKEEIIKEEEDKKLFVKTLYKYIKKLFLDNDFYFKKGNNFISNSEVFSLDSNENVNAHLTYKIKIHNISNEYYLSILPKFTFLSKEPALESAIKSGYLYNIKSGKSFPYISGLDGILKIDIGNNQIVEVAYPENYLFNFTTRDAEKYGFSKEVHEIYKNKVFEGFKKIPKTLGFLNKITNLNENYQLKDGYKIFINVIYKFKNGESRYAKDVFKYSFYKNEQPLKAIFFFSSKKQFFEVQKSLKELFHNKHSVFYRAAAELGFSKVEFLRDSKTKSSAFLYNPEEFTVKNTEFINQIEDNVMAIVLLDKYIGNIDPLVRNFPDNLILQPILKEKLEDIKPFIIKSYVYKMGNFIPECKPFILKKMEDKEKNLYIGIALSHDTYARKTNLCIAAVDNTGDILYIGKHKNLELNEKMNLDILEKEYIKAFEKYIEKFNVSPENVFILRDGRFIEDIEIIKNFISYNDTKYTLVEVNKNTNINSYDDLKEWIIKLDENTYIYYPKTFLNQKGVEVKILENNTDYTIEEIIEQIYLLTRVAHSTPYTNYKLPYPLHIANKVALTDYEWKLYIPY

MpAgo WT [2] = target: T2, MpAgo WT (Marinitoga piezophila, UniProt H2J4R4 1-639); settings: biotinylated
T2 sequence: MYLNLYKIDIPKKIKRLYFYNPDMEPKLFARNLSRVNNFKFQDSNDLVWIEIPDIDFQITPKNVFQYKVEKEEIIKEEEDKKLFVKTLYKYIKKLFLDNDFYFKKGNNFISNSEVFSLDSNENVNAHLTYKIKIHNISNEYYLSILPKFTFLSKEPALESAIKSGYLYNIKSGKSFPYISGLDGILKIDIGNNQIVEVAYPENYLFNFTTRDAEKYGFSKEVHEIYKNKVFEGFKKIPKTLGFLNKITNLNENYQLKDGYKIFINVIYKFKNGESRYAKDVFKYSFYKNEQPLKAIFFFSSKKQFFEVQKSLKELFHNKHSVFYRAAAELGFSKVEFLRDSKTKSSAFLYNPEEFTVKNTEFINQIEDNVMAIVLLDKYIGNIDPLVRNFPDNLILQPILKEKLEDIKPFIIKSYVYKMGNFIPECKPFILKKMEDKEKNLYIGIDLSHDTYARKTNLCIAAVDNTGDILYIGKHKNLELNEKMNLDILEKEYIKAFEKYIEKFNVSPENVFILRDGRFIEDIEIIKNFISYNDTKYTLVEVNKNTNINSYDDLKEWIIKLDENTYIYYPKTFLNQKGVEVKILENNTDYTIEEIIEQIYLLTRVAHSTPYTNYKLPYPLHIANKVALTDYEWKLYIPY

[3] = target: T3, dMpAgo (catalytically inactive MpAgo) (Marinitoga piezophila, UniProt H2J4R4 1-639, D446A)
T3 sequence: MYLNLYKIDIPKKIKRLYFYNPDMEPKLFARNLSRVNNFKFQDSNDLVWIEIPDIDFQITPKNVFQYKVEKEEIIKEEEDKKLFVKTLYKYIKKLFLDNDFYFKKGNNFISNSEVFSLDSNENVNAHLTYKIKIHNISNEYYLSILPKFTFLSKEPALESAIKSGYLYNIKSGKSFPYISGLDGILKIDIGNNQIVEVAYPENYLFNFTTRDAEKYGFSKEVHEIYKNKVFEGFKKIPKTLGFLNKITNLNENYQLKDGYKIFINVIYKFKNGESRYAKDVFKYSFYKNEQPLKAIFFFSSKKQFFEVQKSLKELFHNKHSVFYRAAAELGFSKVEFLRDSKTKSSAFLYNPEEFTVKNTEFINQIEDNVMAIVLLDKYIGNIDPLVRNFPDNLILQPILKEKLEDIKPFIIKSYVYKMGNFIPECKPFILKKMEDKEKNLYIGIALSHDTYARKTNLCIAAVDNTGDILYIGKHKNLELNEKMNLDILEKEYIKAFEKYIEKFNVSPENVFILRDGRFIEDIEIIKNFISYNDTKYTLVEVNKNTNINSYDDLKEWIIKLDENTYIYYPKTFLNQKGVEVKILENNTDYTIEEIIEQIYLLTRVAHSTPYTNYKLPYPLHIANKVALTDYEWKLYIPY

[4] = target: T3, dMpAgo (catalytically inactive MpAgo); remark: listed apart in the source
MpAgo WT [5] = target: T2, MpAgo WT
[6] = target: T3, dMpAgo (catalytically inactive MpAgo); remark: listed apart in the source
MpAgo WT [7] = target: T2, MpAgo WT; remark: listed apart in the source
[8] = target: T3, dMpAgo (catalytically inactive MpAgo); remark: listed apart in the source
[9] = target: T3, dMpAgo (catalytically inactive MpAgo); remark: listed apart in the source
[10] = target: T3, dMpAgo (catalytically inactive MpAgo); remark: listed apart in the source
[11] = target: T3, dMpAgo (catalytically inactive MpAgo); remark: listed apart in the source
[12] = target: T3, dMpAgo (catalytically inactive MpAgo); remark: listed apart in the source
[13] = target: T3, dMpAgo (catalytically inactive MpAgo); remark: listed apart in the source
[14] = target: T3, dMpAgo (catalytically inactive MpAgo); remark: listed apart in the source
[15] = target: T3, dMpAgo (catalytically inactive MpAgo); remark: listed apart in the source

UGCGGAUGCCAUAUGCAACUU / GGCAGCAUUCAACCAUAUGGCANCCGCAUACAGCCAAG [A6 guide / I target]
binding signal ([1]; N = inosine at target 23): 19 % bound

UAUUGUGACAAGAAUGCUGUUAAAAAAAAAAA / GGCAGCAUUCAACAUUCUAGUCACAAUAUACAGCCAAG [32-nt guide / mm10]
binding signal (fold Kd vs complementary) [1]: > 5

33-nt gRNA
Kd (MpAgo WT [2]): 35 nM

UAUUGUGACAAGAAUGCUGUUAAAAAAAAAAA / GGCAGCAUUCAACAUUGUUGUCACAAUAUACAGCCAAG [32-nt guide / mm12]
binding signal (fold Kd vs complementary) [1]: > 5

B1: BrdU guide / 18-nt target (mixed)
RNA 1: UAUACAACCUACUACCUCAUU
RNA 2: GGACUAUGUAGAUCUAUAAUUAGAGGUAGUAGGUUGUAUCUCAGGAGGUC
modifications: BrdU at guide 1
Kd [3]: 0.107 ± 0.006 nM

B2: BrdU guide / 15-nt target (mixed)
RNA 1: UAUACAACCUACUACCUCAUU
RNA 2: GGACUAUGUAGAUCUAUAAUUACUCGUAGUAGGUUGUAUCUCAGGAGGUC
modifications: BrdU at guide 1
Kd [3]: 0.083 ± 0.008 nM

B3: BrdU guide / OFF target (mixed)
RNA 1: UAUACAACCUACUACCUCAUU
RNA 2: GUUAUGUGUGUGAUUAUAUUUGUUCCAGUUCCUGUGUAAUAGACAUGGAA
modifications: BrdU at guide 1
binding result [4]: no binding

CAUACAACCUACUACCUCAUU (ssRNA, 5'-OH) [gRNA 5'-rC]
Kd (MpAgo WT [5]): 104 ± 9 nM

B4: BrdU guide / ON target (mixed)
RNA 1: UAUACAACCUACUACCUCAUU
RNA 2: GGACUAUGAUCUAGAUAUUAAUGAGGUAGUAGGUUGUAUCUCAGGAGGUC
modifications: BrdU at guide 1
Kd [3]: 0.5 ± 0.115 nM
Kd [4]: 0.175 ± 0.023 nM
Kd [6]: 0.193 ± 0.02 nM

GAUACAACCUACUACCUCAUU (ssRNA, 5'-OH) [gRNA 5'-rG]
Kd (MpAgo WT [5]): 49 ± 5 nM
Kd (MpAgo WT [7]): 52 ± 4 nM

B5: G6 guide / A target (mixed)
RNA 1: UGCGGGUGCCAUAUGCAACUU
RNA 2: GGCAGCAUUCAACCAUAUGGCAACCGCAUACAGCCAAG
modifications: BrdU at guide 1
Kd [8]: 0.779 ± 0.071 nM

B6: G7 guide / C target (mixed)
RNA 1: UAGCGGGUGCCAUAUCCAACU
RNA 2: GGCAGCAUUCAACCAUAUGGCACCCGCAUACAGCCAAG
modifications: BrdU at guide 1
binding result [9]: binds

B7: A7 guide / mm9 (mixed)
RNA 1: UAGCGGAUGCCAUAUCCAACU
RNA 2: GGCAGCAUUCAACCAUAUGGAAUCCGCAUACAGCCAAG
modifications: BrdU at guide 1
binding signal [10]: 327 fold Kd vs complementary

B8: C6 guide / U target (mixed)
RNA 1: UGCGGCUGCCAUAUGCAACUU
RNA 2: GGCAGCAUUCAACCAUAUGGCAUCCGCAUACAGCCAAG
modifications: BrdU at guide 1
binding result [11]: binds

B9: U6 guide / U target (mixed)
RNA 1: UGCGGUUGCCAUAUGCAACUU
RNA 2: GGCAGCAUUCAACCAUAUGGCAUCCGCAUACAGCCAAG
modifications: BrdU at guide 1
binding result [11]: binds

B10: A7 guide / mm3 (mixed)
RNA 1: UAGCGGAUGCCAUAUCCAACU
RNA 2: GGCAGCAUUCAACCAUAUGGCAUCCGAAUACAGCCAAG
modifications: BrdU at guide 1
binding signal [10]: 32 fold Kd vs complementary

B11: G6 guide / C target (mixed)
RNA 1: UGCGGGUGCCAUAUGCAACUU
RNA 2: GGCAGCAUUCAACCAUAUGGCACCCGCAUACAGCCAAG
modifications: BrdU at guide 1
binding signal [12]: 13 fold Kd vs C6 guide/G target

B12: A7 guide / G target (mm7) (mixed)
RNA 1: UAGCGGAUGCCAUAUCCAACU
RNA 2: GGCAGCAUUCAACCAUAUGGCAGCCGCAUACAGCCAAG
modifications: BrdU at guide 1
binding signal [10]: 301 fold Kd vs complementary

B13: A6 guide / A target (mixed)
RNA 1: UGCGGAUGCCAUAUGCAACUU
RNA 2: GGCAGCAUUCAACCAUAUGGCAACCGCAUACAGCCAAG
modifications: BrdU at guide 1
binding signal [13]: ~10 fold Kd vs I target

B14: A6 guide / U target (complementary) (mixed)
RNA 1: UGCGGAUGCCAUAUGCAACUU
RNA 2: GGCAGCAUUCAACCAUAUGGCAUCCGCAUACAGCCAAG
modifications: BrdU at guide 1
binding result [8]: binds

B15: U6 guide / G target (mixed)
RNA 1: UGCGGUUGCCAUAUGCAACUU
RNA 2: GGCAGCAUUCAACCAUAUGGCAGCCGCAUACAGCCAAG
modifications: BrdU at guide 1
binding signal [13]: 21 fold Kd vs G6 guide/U target

B16: C7 guide / A target (mixed)
RNA 1: UAGCGGCUGCCAUAUCCAACU
RNA 2: GGCAGCAUUCAACCAUAUGGCAACCGCAUACAGCCAAG
modifications: BrdU at guide 1
binding signal [14]: ~33 fold Kd vs I target

B17: C7 guide / G target (mixed)
RNA 1: UAGCGGCUGCCAUAUCCAACU
RNA 2: GGCAGCAUUCAACCAUAUGGCAGCCGCAUACAGCCAAG
modifications: BrdU at guide 1
binding result [9]: binds

B18: U7 guide / A target (mixed)
RNA 1: UAGCGGUUGCCAUAUCCAACU
RNA 2: GGCAGCAUUCAACCAUAUGGCAACCGCAUACAGCCAAG
modifications: BrdU at guide 1
binding result [9]: binds

B19: A7 guide / C target (mixed)
RNA 1: UAGCGGAUGCCAUAUCCAACU
RNA 2: GGCAGCAUUCAACCAUAUGGCACCCGCAUACAGCCAAG
modifications: BrdU at guide 1
binding signal [15]: 47 fold Kd vs C7 guide/A target

UAUACAACCUACUACCUCAUU (ssRNA, 5'-OH) [gRNA 5'-rU]
Kd (MpAgo WT [5]): 81 ± 9 nM

AAUACAACCUACUACCUCAUU (ssRNA, 5'-OH) [gRNA 5'-rA]
Kd (MpAgo WT [5]): 73 ± 10 nM
